# Biological target: mS105 (Chlamydomonas reinhardtii (endogenous in strain CC-4351))
# Experiment: cryo-EM structure; single-particle reconstruction of the native small subunit (SSU) of the C. reinhardtii mitoribosome isolated from purified mitochondria; Monosome buffer; 5.49 A, focused refinement 4.19 A (body) and 4.47 A (head)
substance,measurement,value
mS105 (natural protein),stoichiometry N,3

# Reference: PMC8660880
